In US7105156 (University of California, dated 2006):

Target: T1, p56^RB protein (amino-truncated 56 kDa RB protein, C-terminal half of the RB protein) (Homo sapiens (Human), UniProt P06400 379-928)
T1 sequence: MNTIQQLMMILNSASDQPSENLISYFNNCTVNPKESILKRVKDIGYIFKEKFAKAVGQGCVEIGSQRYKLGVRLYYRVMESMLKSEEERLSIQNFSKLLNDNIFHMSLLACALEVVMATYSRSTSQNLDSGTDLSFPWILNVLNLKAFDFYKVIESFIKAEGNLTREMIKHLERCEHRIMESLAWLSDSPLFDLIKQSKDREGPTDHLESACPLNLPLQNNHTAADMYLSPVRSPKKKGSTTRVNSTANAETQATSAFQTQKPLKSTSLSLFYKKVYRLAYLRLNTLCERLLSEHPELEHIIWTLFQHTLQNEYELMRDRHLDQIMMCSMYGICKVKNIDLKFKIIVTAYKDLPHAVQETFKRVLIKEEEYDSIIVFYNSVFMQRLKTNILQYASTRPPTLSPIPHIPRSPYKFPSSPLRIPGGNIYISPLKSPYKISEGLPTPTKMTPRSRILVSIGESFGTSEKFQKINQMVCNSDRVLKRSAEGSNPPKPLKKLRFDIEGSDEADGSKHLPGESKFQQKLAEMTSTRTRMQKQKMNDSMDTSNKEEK
Experiment: cell-based or functional assay

B1: T peptide (SV40 T-antigen peptide, amino acids 101-118) (peptide)
peptide: ENLFCSEEMPSSDDEATA
percent of injected cells incorporating BrdU (Saos-2 cells, 5 mM T peptide, 500 to 1000-fold molar excess over p56^RB): ~70%
